Experimental data taken from patent US7641891B2, “Chimeric, human and humanized anti-CSAp monoclonal antibodies” (Immunomedics, Inc., priority 1998, dated 2010).

How the values were obtained:
[1] = system: CSAp antigen; assay: Competitive Binding Assay against HRP-conjugated Mu-9; parameters: species or system human; conditions: for Competition with the binding of HRP-conjugated Mu-9 to the CSAp antigen: antigen-coated wells, competing antibody 0-50 μg/ml; for Binding affinity to CSAp antigen compared with murine Mu-9: see Example 8-9
Protocol: Murine Mu-9 IgG was conjugated with horseradish peroxidase (HRP) (Sigma). The peroxidase-conjugated Mu-9 was first tested for binding on microwells coated with CSAp antigen, and the optimum concentration was determined to be 0.2 μg/ml. Peroxidase-conjugated Mu-9 was mixed with various concentrations of either murine or chimeric Mu-9 (0-50 μg/ml) before addition to the antigen-coated wells. Binding of the peroxidase-conjugated Mu-9 to the antigen in the presence of the competing antibodies was measured at 490 nm after the addition of the substrate as described earlier.
The binding affinity of hMu-9 was compared in a competitive binding assay as described in Example 6.

[2] = system: CSAp antigen; assay: Mu-9 Direct Binding Assay (ELISA); parameters: species or system human; conditions: wells coated with GW-39 tumor extract fraction, murine Mu-9 as standard
Protocol: Chimeric antibody supernatant (100 μl) or purified antibody (0-1 μg/ml) was added and incubated at room temperature for 1 hour. Unbound proteins were removed by washing six times with wash buffer (PBS containing 0.05% Tween 20). Purified murine Mu-9 protein was used as the standard. The bound antibodies were allowed to react with peroxidase-conjugated goat anti-human IgG, Fc fragment-specific (Jackson ImmunoResearch, West Grove Pa.) and peroxidase conjugated goat anti-mouse IgG, Fc fragment-specific antibodies (Jackson ImmunoResearch). […] The color was developed in the dark for 1 hour, the reaction was stopped with 50 μl of 4NH2SO4, and the absorbance at 490 nm was measured in a Dynatech plate reader (Dynatech Labs, Sussex, UK).
The methods for expression and binding activity assays for hMu9 were same as described for cMu9. Approximately 10 and 30 μg of linearized hMu9VkpKh and hMu9VHpG1g were co-transfected into SP2/0 cells by electroporation. Transfected cells were grown in 96-well cell culture plates in complete medium for 2 days and then selected by the addition of hygromycin at a final concentration of 500 U/ml. Typically, the colonies began to emerge 2-3 weeks after electroporation and were assayed for antibody secretion by enzyme-linked immunosorbent assay (ELISA). […] The purified antibodies (5 μg) were analyzed by SDS-PAGE on a 4-20% gradient gel under reducing conditions.

| Competition with the binding of HRP-conjugated Mu-9 to the CSAp antigen [1] | Direct binding to CSAp antigen ([2]; listed as cMu-9) | Molecule | Direct binding to CSAp antigen [2] | Binding affinity to CSAp antigen compared with murine Mu-9 [1] | Binding affinity to CSAp antigen compared with murine Mu-9 ([1]; listed as cMu-9) |
| --- | --- | --- | --- | --- | --- |
| competed equally well | – | murine Mu-9: murine monoclonal antibody of the IgG1 subtype, directed against the colon-specific antigen-p mucin (CSAp) (antibody, listed as Murine sp., V domains shown, murine IgG1 constant regions) VH: VQLQESGPELVKPGASVKMSCRASGYTFTEYVITWVKQRTGQGLEWIGEIYPGSGSTSYNEKFKGKATLTADKSSNTAYMHLSSLTSEDSAVYFCTREDLGGQGTLVTVSS VL: AVLMTQTPLSLPVSLGDQASISCRSSQSIVHSNGNTYLEWYLQKPGQSPKLLIYKVSNRFSGVPDRFSGTGSGTDFTVRISRVEAEDLGLYYCFQGSRVPYTFGGGTKLEIK | – | – | – |
| competed equally well | bound avidly to the CSAp antigen | cMu-9-2: chimeric Mu-9 constructed from the VH and Vk2 and expressed in Sp2/0 cells (antibody, V domains shown, human constant regions, chimeric Mu-9 constructed from the VH and Vk2 and expressed in Sp2/0 cells) VH: QVQLQESGPELVKPGASVKMSCRASGYTFTEYVITWVKQRTGQGLEWIGEIYPGSGSTSYNEKFKGKATLTADKSSNTAYMHLSSLTSEDSAVYFCTREDLGGQGTLVTVSS VL: DILQTQTPLSLPVSLGDQASISCRSSQSIVHSNGNTYLEWYLQKPGQSPKLLIYKVSNRFSGVPDRFSGTGSGTDFTVRISRVEAEDLGLYYCFQGSRVPYTFGGGTKLEIKR | virtually superimposable on that of the murine Mu-9 | comparable binding affinity to CSAp antigen as that of murine Mu-9 | comparable to that of its murine counterpart |
